Biological target: Hsf1-StrepTag II;Ssa1 (Hsp70) (Saccharomyces cerevisiae;Saccharomyces …, UniProt P10961;P10591 1-833;1-642, |)
Test: EMSA; 0.25 uM complex, 0.05 uM probe; 10 mM Tris-HCl pH 7.5, 50 mM KCl, 2.5 mM DTT, 0.25% Tween 20, 20 min at 20 C; 6% DNA retardation gel in TBE (modified: 1 mM MgCl2, no DTT listed, 0.7% agarose)
Settings: protein: recombinant;recombinant; tags: C-terminal StrepTag II;6xHis-SUMO removed by Ulp1; chain copies: 3;1; blunt

Hsf1-StrepTag II;Ssa1 (Hsp70), sequence (P10961 whole entry, chain 1 of 2): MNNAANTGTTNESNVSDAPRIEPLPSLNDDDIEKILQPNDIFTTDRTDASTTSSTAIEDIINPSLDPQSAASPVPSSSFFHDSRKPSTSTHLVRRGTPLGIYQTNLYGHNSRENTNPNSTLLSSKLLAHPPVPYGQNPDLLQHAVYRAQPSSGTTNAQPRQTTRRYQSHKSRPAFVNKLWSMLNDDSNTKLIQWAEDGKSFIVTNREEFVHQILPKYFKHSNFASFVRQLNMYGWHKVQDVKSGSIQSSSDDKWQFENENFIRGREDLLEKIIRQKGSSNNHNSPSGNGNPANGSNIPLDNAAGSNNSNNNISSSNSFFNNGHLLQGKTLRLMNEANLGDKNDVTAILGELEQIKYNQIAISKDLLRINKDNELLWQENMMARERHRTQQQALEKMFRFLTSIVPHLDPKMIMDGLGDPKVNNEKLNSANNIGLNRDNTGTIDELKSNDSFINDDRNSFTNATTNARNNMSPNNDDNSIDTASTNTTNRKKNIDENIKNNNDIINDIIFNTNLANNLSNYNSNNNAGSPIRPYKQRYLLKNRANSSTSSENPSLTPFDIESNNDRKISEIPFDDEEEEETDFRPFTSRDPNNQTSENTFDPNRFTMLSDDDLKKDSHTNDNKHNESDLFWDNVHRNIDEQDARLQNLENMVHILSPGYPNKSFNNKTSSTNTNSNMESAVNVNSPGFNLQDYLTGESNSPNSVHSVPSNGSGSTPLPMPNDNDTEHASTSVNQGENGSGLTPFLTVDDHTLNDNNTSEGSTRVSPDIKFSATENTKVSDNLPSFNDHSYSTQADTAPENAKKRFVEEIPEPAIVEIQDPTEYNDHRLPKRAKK
Hsf1-StrepTag II;Ssa1 (Hsp70), sequence (P10591 whole entry, chain 2 of 2): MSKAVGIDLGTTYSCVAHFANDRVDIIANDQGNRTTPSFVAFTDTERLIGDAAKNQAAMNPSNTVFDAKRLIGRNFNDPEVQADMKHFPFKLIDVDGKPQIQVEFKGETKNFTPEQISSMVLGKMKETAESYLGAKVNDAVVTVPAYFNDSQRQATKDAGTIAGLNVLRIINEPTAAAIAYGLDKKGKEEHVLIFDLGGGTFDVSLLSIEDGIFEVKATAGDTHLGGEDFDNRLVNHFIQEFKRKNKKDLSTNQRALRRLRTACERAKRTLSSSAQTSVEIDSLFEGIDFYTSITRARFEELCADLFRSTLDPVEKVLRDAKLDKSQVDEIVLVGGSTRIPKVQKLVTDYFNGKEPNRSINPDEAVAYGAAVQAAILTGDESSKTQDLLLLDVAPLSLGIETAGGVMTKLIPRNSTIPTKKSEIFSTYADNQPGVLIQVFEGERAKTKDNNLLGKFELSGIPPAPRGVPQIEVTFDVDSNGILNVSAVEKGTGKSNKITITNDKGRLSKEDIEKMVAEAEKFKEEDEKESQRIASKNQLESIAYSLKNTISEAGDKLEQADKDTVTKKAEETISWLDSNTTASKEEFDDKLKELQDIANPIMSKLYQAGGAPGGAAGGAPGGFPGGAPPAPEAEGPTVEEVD

B1: HSE-DY682 (dsDNA)
DNA 1: TCGATTTTCCAGAACGTTCCATCGGC
DNA 2: GCCGATGGAACGTTCTGGAAAATCGA
Question: Does B1 bind?
Answer: binds
